The source of these data is PMC2706832.

The target in this assay is wild-type CCR1 expressed on HEK293 cells (human) (UniProt P32246).
Sequence of wild-type CCR1 expressed on HEK293 cells (human) (P32246 whole entry): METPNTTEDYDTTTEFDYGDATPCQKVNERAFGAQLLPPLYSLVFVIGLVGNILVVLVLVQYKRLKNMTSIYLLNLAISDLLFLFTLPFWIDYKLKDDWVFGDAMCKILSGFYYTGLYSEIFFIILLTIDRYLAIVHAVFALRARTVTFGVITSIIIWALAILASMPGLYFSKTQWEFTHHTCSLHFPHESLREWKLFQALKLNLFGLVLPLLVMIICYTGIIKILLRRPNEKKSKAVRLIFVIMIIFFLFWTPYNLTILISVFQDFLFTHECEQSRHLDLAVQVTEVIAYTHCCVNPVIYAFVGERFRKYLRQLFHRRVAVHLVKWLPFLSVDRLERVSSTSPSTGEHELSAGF

B1: CCL14 full length (1-74) (ligand)
chain: TKTESSSRGPYHPSECCFTYTTYKIPRQRIMDYYETNSQCSKPGIVFITKRGHSVCTNPSDKWVQDYIKDMKEN
In the case of B1, the EC50 for calcium flux in CCR1-transfected HEK293 cells is > 1000 nM.
